# Experimental data: publication PMC7477763
# Legend:
# [1] = target: Middle East respiratory syndrome papain-like protease (MERS PLpro), recombinant (Middle East respiratory syndrome coronavirus)
# [2] = target: human UCH-L3, recombinant (human) (UniProt P15374)
# Chain of UniProt P15374 (P15374 whole entry): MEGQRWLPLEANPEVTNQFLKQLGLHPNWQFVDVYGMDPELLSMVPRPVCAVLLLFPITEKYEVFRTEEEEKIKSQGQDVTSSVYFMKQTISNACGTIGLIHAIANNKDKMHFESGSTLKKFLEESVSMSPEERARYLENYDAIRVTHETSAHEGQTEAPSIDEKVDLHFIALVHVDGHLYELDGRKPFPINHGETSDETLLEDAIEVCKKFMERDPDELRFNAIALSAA
substance,measurement,setting,value
Ub-ACC (ubiquitin with C-terminal ACC fluorophore) (from UniProt P0CG48 1-76),KM of hydrolysis of the ACC-labeled substrate (release of ACC),[1],3.55 µM
same,kcat of hydrolysis of the ACC-labeled substrate,[1],3.68 s^–1
same,kcat/KM of hydrolysis of the ACC-labeled substrate,[1],1e+06 M^–1 s^–1
same,KM of hydrolysis of the ACC-labeled substrate (release of ACC),[2],0.048 µM
same,kcat of hydrolysis of the ACC-labeled substrate,[2],0.107 s^–1
